Measurements taken from patent publication US20210032299A1 (Eli Lilly, published 2021).
Starred links: 1 amine or outer side, 2 acyl side, 3 side chain; linkers in the order of their positions; H or OH if unused. Non-standard residues stand in square brackets, D forms with d. Groups on a side chain read outwards from the residue. No end group written: not given here. *: point of attachment. C20 diacid = O=C(O)CCCCCCCCCCCCCCCCCCC(=O)*; γGlu = O=C(O)[C@H](CCC(=O)[*:2])N[*:1]; 4Pal = N[C@@H](Cc1ccncc1)C(=O)O; αMeL = CC(C)C[C@](C)(N)C(=O)O; Orn = NCCC[C@H](N)C(=O)O; AEEA = NCCOCCOCC(=O)O; Aib = CC(C)(N)C(=O)O

T1: human glucose-dependent insulinotropic peptide receptor (human, UniProt P48546 22-466)
T1 sequence (looked up): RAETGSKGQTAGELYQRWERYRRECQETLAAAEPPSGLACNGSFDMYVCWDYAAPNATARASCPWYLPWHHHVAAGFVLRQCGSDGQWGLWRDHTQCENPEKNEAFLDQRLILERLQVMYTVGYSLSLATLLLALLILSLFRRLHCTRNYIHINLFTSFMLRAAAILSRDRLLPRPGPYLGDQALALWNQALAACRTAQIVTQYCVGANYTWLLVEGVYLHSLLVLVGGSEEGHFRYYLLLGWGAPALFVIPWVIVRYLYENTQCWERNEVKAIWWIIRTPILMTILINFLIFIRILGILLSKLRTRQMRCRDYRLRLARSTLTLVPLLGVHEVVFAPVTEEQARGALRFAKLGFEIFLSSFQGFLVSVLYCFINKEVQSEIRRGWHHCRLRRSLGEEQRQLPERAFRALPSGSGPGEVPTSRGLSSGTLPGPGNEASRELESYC


Experiments:
Assay in all cases: cell-based or functional assay
human GLP-1 receptor = human GLP-1 receptor (human, UniProt P43220 24-463)
[1] = molecular target: T1, human glucose-dependent insulinotropic …
human glucagon receptor = human glucagon receptor (human, UniProt P47871 26-477)
Sequence of human glucagon receptor (P47871 26-477): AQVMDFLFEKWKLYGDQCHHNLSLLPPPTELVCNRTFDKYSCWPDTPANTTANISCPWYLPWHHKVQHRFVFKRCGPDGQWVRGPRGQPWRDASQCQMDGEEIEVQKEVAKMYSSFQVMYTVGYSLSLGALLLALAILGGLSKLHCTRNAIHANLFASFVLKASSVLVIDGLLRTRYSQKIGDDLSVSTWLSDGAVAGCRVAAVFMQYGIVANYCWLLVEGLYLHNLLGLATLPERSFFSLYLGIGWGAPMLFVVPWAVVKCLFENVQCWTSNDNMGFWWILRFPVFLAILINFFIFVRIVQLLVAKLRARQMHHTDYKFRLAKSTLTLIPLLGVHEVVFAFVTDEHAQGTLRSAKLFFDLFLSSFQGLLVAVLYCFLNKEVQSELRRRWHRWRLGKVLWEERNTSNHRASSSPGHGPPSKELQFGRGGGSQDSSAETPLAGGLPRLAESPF

Binder | hGLP1R cAMP Rel EC50 (human GLP-1 receptor) [nM] | hGIPR cAMP Rel EC50 [1] [nM] | hGcgR cAMP Rel EC50 (human glucagon receptor) [nM]
Y[Aib]EGTLISDYSI[αMeL]LDKK([AEEA-AEEA-γGlu-C20 diacid])HQ[Aib]EFVEYLLEGGPSSGAPPPS-NH2 (N-terminus assumed; SMILES CC[C@H](C)[C@H](NC(=O)[C@H](CC(C)C)NC(=O)[C@@H](NC(=O)CNC(=O)[C@H](CCC(=O)O)NC(=O)C(C)(C)NC(=O)[C@@H](N)Cc1ccc(O)cc1)[C@@H](C)O)C(=O)N[C@@H](CO)C(=O)N[C@@H](CC(=O)O)C(=O)N[C@@H](Cc1ccc(O)cc1)C(=O)N[C@@H](CO)C(=O)N[C@H](C(=O)N[C@@](C)(CC(C)C)C(=O)N[C@@H](CC(C)C)C(=O)N[C@@H](CC(=O)O)C(=O)N[C@@H](CCCCN)C(=O)N[C@@H](CCCCNC(=O)COCCOCCNC(=O)COCCOCCNC(=O)CC[C@H](NC(=O)CCCCCCCCCCCCCCCCCCC(=O)O)C(=O)O)C(=O)N[C@@H](Cc1c[nH]cn1)C(=O)N[C@@H](CCC(N)=O)C(=O)NC(C)(C)C(=O)N[C@@H](CCC(=O)O)C(=O)N[C@@H](Cc1ccccc1)C(=O)N[C@H](C(=O)N[C@@H](CCC(=O)O)C(=O)N[C@@H](Cc1ccc(O)cc1)C(=O)N[C@@H](CC(C)C)C(=O)N[C@@H](CC(C)C)C(=O)N[C@@H](CCC(=O)O)C(=O)NCC(=O)NCC(=O)N1CCC[C@H]1C(=O)N[C@@H](CO)C(=O)N[C@@H](CO)C(=O)NCC(=O)N[C@@H](C)C(=O)N1CCC[C@H]1C(=O)N1CCC[C@H]1C(=O)N1CCC[C@H]1C(=O)N[C@@H](CO)C(N)=O)C(C)C)[C@@H](C)CC) [Example 73] | > 5000 | 0.0151 | > 5000
Y[Aib]EGTFISDYSI[αMeL]LDKK([AEEA-AEEA-γGlu-C20 diacid])HQ[Aib]DFVE[4Pal]LLAQGPSSGAPPPS-NH2 (N-terminus assumed; SMILES CC[C@H](C)[C@H](NC(=O)[C@H](Cc1ccccc1)NC(=O)[C@@H](NC(=O)CNC(=O)[C@H](CCC(=O)O)NC(=O)C(C)(C)NC(=O)[C@@H](N)Cc1ccc(O)cc1)[C@@H](C)O)C(=O)N[C@@H](CO)C(=O)N[C@@H](CC(=O)O)C(=O)N[C@@H](Cc1ccc(O)cc1)C(=O)N[C@@H](CO)C(=O)N[C@H](C(=O)N[C@@](C)(CC(C)C)C(=O)N[C@@H](CC(C)C)C(=O)N[C@@H](CC(=O)O)C(=O)N[C@@H](CCCCN)C(=O)N[C@@H](CCCCNC(=O)COCCOCCNC(=O)COCCOCCNC(=O)CC[C@H](NC(=O)CCCCCCCCCCCCCCCCCCC(=O)O)C(=O)O)C(=O)N[C@@H](Cc1c[nH]cn1)C(=O)N[C@@H](CCC(N)=O)C(=O)NC(C)(C)C(=O)N[C@@H](CC(=O)O)C(=O)N[C@@H](Cc1ccccc1)C(=O)N[C@H](C(=O)N[C@@H](CCC(=O)O)C(=O)N[C@@H](Cc1ccncc1)C(=O)N[C@@H](CC(C)C)C(=O)N[C@@H](CC(C)C)C(=O)N[C@@H](C)C(=O)N[C@@H](CCC(N)=O)C(=O)NCC(=O)N1CCC[C@H]1C(=O)N[C@@H](CO)C(=O)N[C@@H](CO)C(=O)NCC(=O)N[C@@H](C)C(=O)N1CCC[C@H]1C(=O)N1CCC[C@H]1C(=O)N1CCC[C@H]1C(=O)N[C@@H](CO)C(N)=O)C(C)C)[C@@H](C)CC) [Example 79] | > 5000 | 0.0316 | > 5000
Y[Aib]EGTFISDYSI[αMeL]LD[Orn]K([AEEA-AEEA-γGlu-C20 diacid])HQ[Aib]DFVE[4Pal]LLETGPSSGAPPPS-NH2 (N-terminus assumed; SMILES CC[C@H](C)[C@H](NC(=O)[C@H](Cc1ccccc1)NC(=O)[C@@H](NC(=O)CNC(=O)[C@H](CCC(=O)O)NC(=O)C(C)(C)NC(=O)[C@@H](N)Cc1ccc(O)cc1)[C@@H](C)O)C(=O)N[C@@H](CO)C(=O)N[C@@H](CC(=O)O)C(=O)N[C@@H](Cc1ccc(O)cc1)C(=O)N[C@@H](CO)C(=O)N[C@H](C(=O)N[C@@](C)(CC(C)C)C(=O)N[C@@H](CC(C)C)C(=O)N[C@@H](CC(=O)O)C(=O)N[C@@H](CCCN)C(=O)N[C@@H](CCCCNC(=O)COCCOCCNC(=O)COCCOCCNC(=O)CC[C@H](NC(=O)CCCCCCCCCCCCCCCCCCC(=O)O)C(=O)O)C(=O)N[C@@H](Cc1c[nH]cn1)C(=O)N[C@@H](CCC(N)=O)C(=O)NC(C)(C)C(=O)N[C@@H](CC(=O)O)C(=O)N[C@@H](Cc1ccccc1)C(=O)N[C@H](C(=O)N[C@@H](CCC(=O)O)C(=O)N[C@@H](Cc1ccncc1)C(=O)N[C@@H](CC(C)C)C(=O)N[C@@H](CC(C)C)C(=O)N[C@@H](CCC(=O)O)C(=O)N[C@H](C(=O)NCC(=O)N1CCC[C@H]1C(=O)N[C@@H](CO)C(=O)N[C@@H](CO)C(=O)NCC(=O)N[C@@H](C)C(=O)N1CCC[C@H]1C(=O)N1CCC[C@H]1C(=O)N1CCC[C@H]1C(=O)N[C@@H](CO)C(N)=O)[C@@H](C)O)C(C)C)[C@@H](C)CC) [Example 80] | > 5000 | 0.0777 | > 5000
YXEGTXISDYSIXLDKKHQXDFVEXLLEGGPSSGAPPPS (Aib2; Iva6; αMeL13; K17((2-[2-(2-Amino-ethoxy)-ethoxy]-acetyl)2-(γ-Glu)-CO-(CH2)18-CO2H); Aib20; 4-Pal25; C-terminal amide) [Example 74] | > 5000 | 0.0167 | 627
YXEGTXISDYSIXLDKKHQXDFVEXLLETGPSSGAPPPS (Aib2; Iva6; αMeL13; K17((2-[2-(2-Amino-ethoxy)-ethoxy]-acetyl)2-(γ-Glu)-CO-(CH2)18-CO2H); Aib20; 4-Pal25; C-terminal amide) [Example 75] | > 5000 | 0.0182 | 2170
YXEGTXISDYSIXLDXKHQXDFVEXLLETGPSSGAPPPS (Aib2; Iva6; αMeL13; Orn16; K17((2-[2-(2-Amino-ethoxy)-ethoxy]-acetyl)2-(γ-Glu)-CO-(CH2)18-CO2H); Aib20; 4-Pal25; C-terminal amide) [Example 77] | > 5000 | 0.0265 | 2660
YXEGTXISDYSIXLDXKHQXDFVEXLLEGGPSSGAPPPS (Aib2; Iva6; αMeL13; Orn16; K17((2-[2-(2-Amino-ethoxy)-ethoxy]-acetyl)2-(γ-Glu)-CO-(CH2)18-CO2H); Aib20; 4-Pal25; C-terminal amide) [Example 76] | > 5000 | 0.0154 | 1200
Y[Aib]EGTLISDYSI[αMeL]LDKK([AEEA-AEEA-γGlu-C20 diacid])HQ[Aib]EFVEYLLETGPSSGAPPPS-NH2 (N-terminus assumed; SMILES CC[C@H](C)[C@H](NC(=O)[C@H](CC(C)C)NC(=O)[C@@H](NC(=O)CNC(=O)[C@H](CCC(=O)O)NC(=O)C(C)(C)NC(=O)[C@@H](N)Cc1ccc(O)cc1)[C@@H](C)O)C(=O)N[C@@H](CO)C(=O)N[C@@H](CC(=O)O)C(=O)N[C@@H](Cc1ccc(O)cc1)C(=O)N[C@@H](CO)C(=O)N[C@H](C(=O)N[C@@](C)(CC(C)C)C(=O)N[C@@H](CC(C)C)C(=O)N[C@@H](CC(=O)O)C(=O)N[C@@H](CCCCN)C(=O)N[C@@H](CCCCNC(=O)COCCOCCNC(=O)COCCOCCNC(=O)CC[C@H](NC(=O)CCCCCCCCCCCCCCCCCCC(=O)O)C(=O)O)C(=O)N[C@@H](Cc1c[nH]cn1)C(=O)N[C@@H](CCC(N)=O)C(=O)NC(C)(C)C(=O)N[C@@H](CCC(=O)O)C(=O)N[C@@H](Cc1ccccc1)C(=O)N[C@H](C(=O)N[C@@H](CCC(=O)O)C(=O)N[C@@H](Cc1ccc(O)cc1)C(=O)N[C@@H](CC(C)C)C(=O)N[C@@H](CC(C)C)C(=O)N[C@@H](CCC(=O)O)C(=O)N[C@H](C(=O)NCC(=O)N1CCC[C@H]1C(=O)N[C@@H](CO)C(=O)N[C@@H](CO)C(=O)NCC(=O)N[C@@H](C)C(=O)N1CCC[C@H]1C(=O)N1CCC[C@H]1C(=O)N1CCC[C@H]1C(=O)N[C@@H](CO)C(N)=O)[C@@H](C)O)C(C)C)[C@@H](C)CC) [Example 72] | > 5000 | 0.0182 | > 5000
Y[Aib]EGTFISDYSI[αMeL]LDKK([AEEA-AEEA-γGlu-C20 diacid])HQ[Aib]DFVE[4Pal]LLAAGPSSGAPPPS-NH2 (N-terminus assumed; SMILES CC[C@H](C)[C@H](NC(=O)[C@H](Cc1ccccc1)NC(=O)[C@@H](NC(=O)CNC(=O)[C@H](CCC(=O)O)NC(=O)C(C)(C)NC(=O)[C@@H](N)Cc1ccc(O)cc1)[C@@H](C)O)C(=O)N[C@@H](CO)C(=O)N[C@@H](CC(=O)O)C(=O)N[C@@H](Cc1ccc(O)cc1)C(=O)N[C@@H](CO)C(=O)N[C@H](C(=O)N[C@@](C)(CC(C)C)C(=O)N[C@@H](CC(C)C)C(=O)N[C@@H](CC(=O)O)C(=O)N[C@@H](CCCCN)C(=O)N[C@@H](CCCCNC(=O)COCCOCCNC(=O)COCCOCCNC(=O)CC[C@H](NC(=O)CCCCCCCCCCCCCCCCCCC(=O)O)C(=O)O)C(=O)N[C@@H](Cc1c[nH]cn1)C(=O)N[C@@H](CCC(N)=O)C(=O)NC(C)(C)C(=O)N[C@@H](CC(=O)O)C(=O)N[C@@H](Cc1ccccc1)C(=O)N[C@H](C(=O)N[C@@H](CCC(=O)O)C(=O)N[C@@H](Cc1ccncc1)C(=O)N[C@@H](CC(C)C)C(=O)N[C@@H](CC(C)C)C(=O)N[C@@H](C)C(=O)N[C@@H](C)C(=O)NCC(=O)N1CCC[C@H]1C(=O)N[C@@H](CO)C(=O)N[C@@H](CO)C(=O)NCC(=O)N[C@@H](C)C(=O)N1CCC[C@H]1C(=O)N1CCC[C@H]1C(=O)N1CCC[C@H]1C(=O)N[C@@H](CO)C(N)=O)C(C)C)[C@@H](C)CC) [Example 78] | > 5000 | 0.0125 | 3000
